Measured values from patent US20210063414A1, “METHODS FOR PREVENTING AND/OR TREATING BONE LOSS CONDITIONS BY MODULATING IRISIN” (Dana-Farber Cancer Institute, Inc., priority 2018, published 2021).

Key:
Assay in all cases: Crosslinking/co-immunoprecipitation/mass spectrometry (TMT quantitative proteomics) to identify irisin receptors
Format in all cases: binding
[1] = biological target: T1, MLO-Y4 cell surface proteins (Mus musculus, UniProt O35143); conditions: co-precipitated protein Atpif1 (ATIF1_MOUSE)
T1 construct: endogenous in cells; host or cells: MLO-Y4
T1 sequence (O35143 26-106): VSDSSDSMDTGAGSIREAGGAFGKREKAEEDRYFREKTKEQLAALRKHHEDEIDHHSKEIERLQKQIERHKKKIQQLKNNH
Procedure, shortened: (§1)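 Mouse MLO-Y4 cells were switched to serum-free FreeStyle medium for 4 h, chilled, then exposed to 10 nM His-tagged irisin (or adipsin as control) for 20 min. Cells were crosslinked with 1.5 mM DTSSP (30 min, ice), and bound proteins were pulled down on Ni-NTA and eluted with 250 mM imidazole. Eluates were separated by SDS-PAGE, trypsin-digested in gel, TMT 6-plex labelled and quantified by MS3-based LC-MS/MS on an Orbitrap Fusion Lumos.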

[2] = biological target: T2, MLO-Y4 cell surface proteins (Mus musculus, UniProt P62880); conditions: co-precipitated protein Gnb2 (GBB2_MOUSE)
T2 construct: endogenous in cells; host or cells: MLO-Y4
T2 sequence (P62880 whole entry): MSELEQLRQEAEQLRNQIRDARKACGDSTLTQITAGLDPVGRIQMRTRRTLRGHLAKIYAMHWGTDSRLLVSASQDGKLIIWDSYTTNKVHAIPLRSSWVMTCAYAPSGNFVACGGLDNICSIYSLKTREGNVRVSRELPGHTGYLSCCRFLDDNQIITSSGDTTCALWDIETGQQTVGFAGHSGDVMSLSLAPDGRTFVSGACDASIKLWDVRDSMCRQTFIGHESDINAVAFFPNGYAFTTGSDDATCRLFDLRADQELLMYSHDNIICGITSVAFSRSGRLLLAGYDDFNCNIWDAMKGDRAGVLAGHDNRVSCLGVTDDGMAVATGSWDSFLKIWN
Procedure, shortened: as §1

[3] = biological target: T3, MLO-Y4 cell surface proteins (Mus musculus, UniProt P41216); conditions: co-precipitated protein Acsl1 (ACSL1_MOUSE)
T3 construct: endogenous in cells; host or cells: MLO-Y4
T3 sequence (P41216 1-699): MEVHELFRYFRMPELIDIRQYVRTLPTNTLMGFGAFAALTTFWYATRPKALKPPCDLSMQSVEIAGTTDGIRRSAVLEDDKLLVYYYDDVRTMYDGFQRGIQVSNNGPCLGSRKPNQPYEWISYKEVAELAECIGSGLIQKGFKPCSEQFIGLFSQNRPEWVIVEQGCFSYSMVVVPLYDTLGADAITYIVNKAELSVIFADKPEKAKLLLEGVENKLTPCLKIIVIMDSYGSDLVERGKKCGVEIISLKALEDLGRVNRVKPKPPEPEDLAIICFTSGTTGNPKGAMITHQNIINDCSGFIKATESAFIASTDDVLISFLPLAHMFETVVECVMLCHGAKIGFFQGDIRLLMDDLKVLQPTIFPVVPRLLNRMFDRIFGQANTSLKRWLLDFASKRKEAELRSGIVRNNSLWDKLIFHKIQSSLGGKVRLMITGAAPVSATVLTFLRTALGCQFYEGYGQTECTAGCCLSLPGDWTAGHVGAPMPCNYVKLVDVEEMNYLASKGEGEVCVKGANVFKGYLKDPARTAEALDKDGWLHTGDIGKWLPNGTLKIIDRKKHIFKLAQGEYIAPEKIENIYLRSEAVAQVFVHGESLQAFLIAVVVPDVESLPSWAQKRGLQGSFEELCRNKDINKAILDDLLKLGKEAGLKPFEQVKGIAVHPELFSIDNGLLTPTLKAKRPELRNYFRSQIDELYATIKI
Procedure, shortened: as §1

B1: irisin: secreted cleaved form of FNDC5; recombinant human/mouse irisin with C-terminal his tag produced in HEK293 cells (protein)
chain: DSPSAPVNVTVRHLKANSAVVSWDVLEDEVVIGFAISQQKKDVRMLRFIQEVNTTTRSCALWDLEEDTEYIVHVQAISIQGQSPASEPVLFKTPREAEKMASKNKDEVTMKE
modifications: left off: small tags and cut ends
notes: secreted cleaved form of FNDC5; recombinant human/mouse irisin with C-terminal his tag produced in HEK293 cells
**Q.** With B1 as the molecule, how does the TMT signal-to-noise ratio [1] read?
**A.** The TMT signal-to-noise ratio was 229.372.

**Q.** And the “irisin/adipsin TMT signal-to-noise ratio” value [1]?
**A.** The value was 0.505.

**Q.** And the TMT signal-to-noise ratio [2]?
**A.** The TMT signal-to-noise ratio was 165.95.

**Q.** And the “irisin/adipsin TMT signal-to-noise ratio” value [2]?
**A.** Its value is 0.563.

**Q.** What about the TMT signal-to-noise ratio [3] of the same molecule?
**A.** Its TMT signal-to-noise ratio is 192.15.

**Q.** And the “irisin/adipsin TMT signal-to-noise ratio” value [3]?
**A.** The value was 0.532.
